In publication doi:10.1101/2020.09.22.308395:

Target: UDP-GlcNAc 4-epimerase (Gne) from Campylobacter jejuni (Campylobacter jejuni)
Experiment: SEC-MALLS

## UDP-GlcNAc 4-epimerase (Gne) from Campylobacter jejuni (enzyme)
  stoichiometry N: 2
